The test system of the data set is Sindbis virus TE/5'2J-GFP. As to the kind of experiment: percent infected (GFP+ in RFP+ ISG-expressing cells); higher = more infection (less antiviral activity). How it is done: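 Confirmatory testing of 87 ISGs. Triplicate wells of BHK/HA-Zeo (control) or BHK/NZAP-Zeo (ZAP) cells were transduced with lentiviruses co-expressing a human ISG plus TagRFP, then infected 48 h later with SINV TE/5'2J-GFP (moi 5). The % GFP+ cells among RFP+ cells was measured by flow cytometry at 8 h post infection. Fluc lentivirus served as control. Three independent experiments.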

[1] abbreviates: experiment: confirmatory screen 1, BHK/HA-Zeo (control).
[2] abbreviates: experiment: confirmatory screen 1, BHK/NZAP-Zeo (ZAP).
Setting [3] is: experiment: confirmatory screen 2, BHK/HA-Zeo (control).
[4] abbreviates: experiment: confirmatory screen 2, BHK/NZAP-Zeo (ZAP).
[5] abbreviates: experiment: confirmatory screen 3, BHK/HA-Zeo (control).
[6] abbreviates: experiment: confirmatory screen 3, BHK/NZAP-Zeo (ZAP).

± gives the standard deviation of the averaged measurements.
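Note: Interferon-defective BHK-21 derivatives, ZAP line overexpressing the rat ZAP N-terminal zinc finger domain fused to Zeocin resistance, GFP scored within live singlet TagRFP+ cells.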

On to “MKEDCLPSSHVPISDSKSIQKSELLGLLKTYNCYHEGKSFQLRHREEEGTLIIEGLLNIAWGLRRPIRLQMQDDREQVHLPSTSWMPRRPSCPLKEPSPQNGNITAQGPSIQPVHKAESSTDSSGPLEEAEEAPQLMRTKSDASCMSQRRPKCRAPGEAQRIRRHRFSINGHFYNHKTSVFTPAYGSVTNVRVNSTMTTLQVLTLLLNKFRVEDGPSEFALYIVHESGERTKLKDCEYPLISRILHGPCEKIARIFLMEADLGVEVPHEVAQYIKFEMPVLDSFVEKLKEEEEREIIKLTMKFQALRLTMLQRLEQLVEAK [RASSF4]”, for which the percent infected is, setting by setting: under setting [1], 80.1 ± 2.3%; under setting [2], 56.3 ± 1.3%; under setting [3], 94.73 ± 0.66%; under setting [4], 94.93 ± 0.39%; under setting [5], 89.1 ± 0.9%; under setting [6], 89.9 ± 1.3%.
For “MKKSGVLFLLGIILLVLIGVQGTPVVRKGRCSCISTNQGTIHLQSLKDLKQFAPSPSCEKIEIIATLKNGVQTCLNPDSADVKELIKKWEKQVSQKKKQKNGKKHQKKKVLKVRKSQRSRQKKTT [CXCL9]”, the percent infected by setting is: under setting [1], 61.9 ± 6.1%; under setting [2], 44.7 ± 2.9%; under setting [3], 88.7 ± 2.5%; under setting [4], 91.55 ± 0.18%; under setting [5], 83.1 ± 1.5%; under setting [6], 82 ± 1.1%.
For the sequence “MKLRSSHNASKTLNANNMETLIECQSEGDIKEHPLLASCESEDSICQLIEVKKRKKVLSWPFLMRRLSPASDFSGALETDLKASLFDQPLSIICGDSDTLPRPIQDILTILCLKGPSTEGIFRRAANEKARKELKEELNSGDAVDLERLPVHLLAVVFKDFLRSIPRKLLSSDLFEEWMGALEMQDEEDRIEALKQVADKLPRPNLLLLKHLVYVLHLISKNSEVNRMDSSNLAICIGPNMLTLENDQSLSFEAQKDLNNKVKTLVEFLIDNCFEIFGENIPVHSSITSDDSLEHTDSSDVSTLQNDSAYDSNDPDVESNSSSGISSPSRQPQVPMATAAGLDSAGPQDAREVSPEPIVSTVARLKSSLAQPDRRYSEPSMPSSQECLESRVTNQTLTKSEGDFPVPRVGSRLESEEAEDPFPEEVFPAVQGKTKRPVDLKIKNLAPGSVLPRALVLKAFSSSSLDASSDSSPVASPSSPKRNFFSRHQSFTTKTEKGKPSREIKKHSMSFTFAPHKKVLTKNLSAGSGKSQDFTRDHVPRGVRKESQLAGRIVQENGCETHNQTARGFCLRPHALSVDDVFQGADWERPGSPPSYEEAMQGPAARLVASESQTVGSMTVGSMRARMLEAHCLLPPLPPAHHVEDSRHRGSKEPLPGHGLSPLPERWKQSRTVHASGDSLGHVSGPGRPELLPLRTVSESVQRNKRDCLVRRCSQPVFEADQFQYAKESYI [TAGAP]”, the percent infected under setting [1] turned out to be 91.3 ± 3%; the percent infected under setting [2] turned out to be 64.8 ± 2.3%; the percent infected under setting [3] was found to be 86.1 ± 4.6%; the percent infected under setting [4] was determined as 92.53 ± 0.75%; the percent infected under setting [5] was 85 ± 2%; the percent infected under setting [6] stood at 89.95 ± 0.44%.
Regarding “MKTFTWTLGVLFFLLVDTGHCRGGQFKIKKINQRRYPRATDGKEEAKKCAYTFLVPEQRITGPICVNTKGQDASTIKDMITRMDLENLKDVLSRQKREIDVLQLVVDVDGNIVNEVKLLRKESRNMNSRVTQLYMQLLHEIIRKRDNSLELSQLENKILNVTTEMLKMATRYRELEVKYASLTDLVNNQSVMITLLEEQCLRIFSRQDTHVSPPLVQVVPQHIPNSQQYTPGLLGGNEIQRDPGYPRDLMPPPDLATSPTKSPFKIPPVTFINEGPFKDCQQAKEAGHSVSGIYMIKPENSNGPMQLWCENSLDPGGWTVIQKRTDGSVNFFRNWENYKKGFGNIDGEYWLGLENIYMLSNQDNYKLLIELEDWSDKKVYAEYSSFRLEPESEFYRLRLGTYQGNAGDSMMWHNGKQFTTLDRDKDMYAGNCAHFHKGGWWYNACAHSNLNGVWYRGGHYRSKHQDGIFWAEYRGGSYSLRAVQMMIKPID [ANGPTL1]”, the percent infected reads like this: under setting [1], 94.8 ± 1.7%; under setting [2], 76.2 ± 1.6%; under setting [3], 95.66 ± 0.28%; under setting [4], 94.3 ± 2.2%; under setting [5], 94.73 ± 0.38%; under setting [6], 94.71 ± 0.28%.
In the case of “MKVSAAALAVILIATALCAPASASPYSSDTTPCCFAYIARPLPRAHIKEYFYTSGKCSNPAVVFVTRKNRQVCANPEKKWVREYINSLEMS [CCL5]”, the percent infected reads like this: under setting [1], 95.946 ± 0.068%; under setting [2], 69.5 ± 4.5%; under setting [3], 94.757 ± 0.09%; under setting [4], 93.5 ± 1.5%; under setting [5], 92.85 ± 0.85%; under setting [6], 93.25 ± 0.49%.
Take “MLLRSKPALPPPLMLLLLGPLGPLSPGALPRPAQAQDVVDLDFFTQEPLHLVSPSFLSVTIDANLATDPRFLILLGSPKLRTLARGLSPAYLRFGGTKTDFLIFDPKKESTFEERSYWQSQVNQDICKYGSIPPDVEEKLRLEWPYQEQLLLREHYQKKFKNSTYSRSSVDVLYTFANCSGLDLIFGLNALLRTADLQWNSSNAQLLLDYCSSKGYNISWELGNEPNSFLKKADIFINGSQLGEDFIQLHKLLRKSTFKNAKLYGPDVGQPRRKTAKMLKSFLKAGGEVIDSVTWHHYYLNGRTATKEDFLNPDVLDIFISSVQKVFQVVESTRPGKKVWLGETSSAYGGGAPLLSDTFAAGFMWLDKLGLSARMGIEVVMRQVFFGAGNYHLVDENFDPLPDYWLSLLFKKLVGTKVLMASVQGSKRRKLRVYLHCTNTDNPRYKEGDLTLYAINLHNVTKYLRLPYPFSNKQVDKYLLRPLGPHGLLSKSVQLNGLTLKMVDDQTLPPLMEKPLRPGSSLGLPAFSYSFFVIRNAKVAACI [HPSE]”: the percent infected reads like this: under setting [1], 97.15 ± 0.33%; under setting [2], 79.82 ± 0.76%; under setting [3], 96 ± 1.1%; under setting [4], 95.86 ± 0.27%; under setting [5], 90.1 ± 0.52%; under setting [6], 90.5 ± 1.7%.
In the case of “MLQRGLWPWRTRLLPTPGTWRPARPWPLPPPPQVLRVKLCGNVKYYQSHHYSTVVPPDEITVIYRHGLPLVTLTLPSRKERCQFVVKPMLSTVGSFLQDLQNEDKGIKTAAIFTADGNMISASTLMDILLMNDFKLVINKIAYDVQCPKREKPSNEHTAEMEHMKSLVHRLFTILHLEESQKKREHHLLEKIDHLKEQLQPLEQVKAGIEAHSEAKTSGLLWAGLALLSIQGGALAWLTWWVYSWDIMEPVTYFITFANSMVFFAYFIVTRQDYTYSAVKSRQFLQFFHKKSKQQHFDVQQYNKLKEDLAKAKESLKQARHSLCLQMQVEELNEKN [CCDC109B]”, the percent infected under setting [1] was determined as 92.6 ± 2.3%; the percent infected under setting [2] came out at 57.4 ± 2%; the percent infected under setting [3] worked out at 97.29 ± 0.17%; the percent infected under setting [4] was 95.61 ± 0.13%; the percent infected under setting [5] came out at 95.11 ± 0.48%; the percent infected under setting [6] worked out at 93.64 ± 0.74%.
Take “MLRAGAPTGDLPRAGEVHTGTTIMAVEFDGGVVMGSDSRVSAGEAVVNRVFDKLSPLHERIYCALSGSAADAQAVADMAAYQLELHGIELEEPPLVLAAANVVRNISYKYREDLSAHLMVAGWDQREGGQVYGTLGGMLTRQPFAIGGSGSTFIYGYVDAAYKPGMSPEECRRFTTDAIALAMSRDGSSGGVIYLVTITAAGVDHRVILGNELPKFYDE [PSMB9]”: the percent infected reads like this: under setting [1], 80 ± 1.9%; under setting [2], 24.2 ± 0.77%; under setting [3], 90.2 ± 1.4%; under setting [4], 91.27 ± 0.32%; under setting [5], 87.59 ± 0.53%; under setting [6], 83.1 ± 1.6%.
Regarding “MLRGISQLPAVATMSWVLLPVLWLIVQTQAIAIKQTPELTLHEIVCPKKLHILHKREIKNNQTEKHGKEERYEPEVQYQMILNGEEIILSLQKTKHLLGPDYTETLYSPRGEEITTKPENMEHCYYKGNILNEKNSVASISTCDGLRGYFTHHHQRYQIKPLKSTDEKEHAVFTSNQEEQDPANHTCGVKSTDGKQGPIRISRSLKSPEKEDFLRAQKYIDLYLVLDNAFYKNYNENLTLIRSFVFDVMNLLNVIYNTIDVQVALVGMEIWSDGDKIKVVPSASTTFDNFLRWHSSNLGKKIHDHAQLLSGISFNNRRVGLAASNSLCSPSSVAVIEAKKKNNVALVGVMSHELGHVLGMPDVPFNTKCPSGSCVMNQYLSSKFPKDFSTSCRAHFERYLLSQKPKCLLQAPIPTNIMTTPVCGNHLLEVGEDCDCGSPKECTNLCCEALTCKLKPGTDCGGDAPNHTTE [ADAMDEC1]”, the percent infected came to 94 ± 2.1% under setting [1]; 66.9 ± 6.3% under setting [2]; 96.2 ± 0.17% under setting [3]; 95.52 ± 0.43% under setting [4]; 94.82 ± 0.19% under setting [5]; 94.56 ± 0.34% under setting [6].
As to “MLTELEKALNSIIDVYHKYSLIKGNFHAVYRDDLKKLLETECPQYIRKKGADVWFKELDINTDGAVNFQEFLILVIKMGVAAHKKSHEESHKE [S100A8]”, the percent infected runs as follows: under setting [1], 80.1 ± 1.9%; under setting [2], 54.4 ± 3.1%; under setting [3], 91.3 ± 1.5%; under setting [4], 92.37 ± 0.69%; under setting [5], 82.1 ± 1.6%; under setting [6], 89.4 ± 1%.
For the sequence “MMAQSKANGSHYALTAIGLGMLVLGVIMAMWNLVPGFSAAEKPTAQGSNKTEVGGGILKSKTFSVAYVLVGAGVMLLLLSICLSIRDKRKQRQGEDLAHVQHPTGAGPHAQEEDSQEEEEEDEEAASRYYVPSYEEVMNTNYSEARGEEQNPRLSISLPSYESLTGLDETTPTSTRADVEASPGNPPDRQNSKLAKRLKPLKVRRIKSEKLHLKDFRINLPDKNVPPPSIEPLTPPPQYDEVQEKAPDTRPPD [TMEM51]”, the percent infected came out at 94.9 ± 1.4% under setting [1]; 61.1 ± 4.6% under setting [2]; 95.13 ± 0.15% under setting [3]; 94.94 ± 0.49% under setting [4]; 93.31 ± 0.41% under setting [5]; 92.77 ± 0.37% under setting [6].
